# Reference: patent US6475744 (GENERAL HOSPITAL CORPORATION A MASSACHUSETTS, dated 2002)
# B1: mTIM-V5 (other, not shown: small tags and cut ends)
# chain: MDLYMMNCELLATCSALGYLEGGTYHKEPDCLESVKDLIRYLRHEDETRDVRQQLGAAQILQSDLLPILTQHRQDKPLFDAVIRLMVNLTQPALLCFGSVPKDSSVRHHFLQVLTYLQAYKEAFASEKAFGVLSETLYELLQLGWEDRQEEDNLLIERILLLVRNILHVPANLEQEKSIDDDASIHDRLLWAIHLSGMDDLLLFLSSSSAEQQWSLHVLEIISLMFRDQTPEQLAGVGQGRLAQERSTDVAELEVLRQREMAEKRARALQRGNRHSRFGGSYIVQGLKSIGEKDVVFHKGLHNLQNYSSDLGKQPRRVPKRRQAAQELSVHRRSVLNVRLFLRDFCSEFLENCYNPLMGAVKDHLLRERAQQHDETYYMWAMAFFMAFNRAATFRPGLVSETLSIRTFHFVEQNLTNYYEMMLTDRKEAASWARRMHLALKAYQELLATVNEMDMCPDEAVRESSRIIKNNIFYMMEYRELFLALFRKFDERYHPRSFLRDLVETTHLFLKMLERFCRSRGNLMVQNKRKKRKKKKKVQDQGVAFSQSPGELEAMWPALAEQLLQCAQDPELSVDPVVPFDAASEVPVEEQRVEAMVRIQDCLTAGQAPQALALLRSAREVWPEGNAFGSPVISPGEEMQLLKQILSTPLPRQQEPEEGDAEEEEEEEEEEELQVVQVSEKEFNFLEYLKRFASSTIVRAYVLLLRSYRQNSAHTNHCIAKMLHRLAHGLGMEALLFQLSLFCLFNRLLSDPAAAAYKELVTFAKYIIGKFFALAAVNQKAFVELLFWKNTAVVREMTQGYGSLDSGSSSHRAPLWSPEEEAQLQELYLAHKDVEGQDVVETILAHLKVVPRTRKQVIHHLVRMGLADSVKEFQKRKGTQIVLWTEDQELELQRLFEEFRDSDDVLGQIMKNITAKRSRARVVDKLLALGLVSERRQLYKKRRKKLAPSCMQNGEKSPRDPWQEDPEEEDEHLPEDESEDEESEEGLPSGQGQGSSSLSAENLGESLRQEGLSAPLLWLQSSLIRAANDREEDGCSQAIPLVPLTEENEEAMENEQFQHLLRKLGIRPPSSGQETFWRIPAKLSSTQLRRVAASLSQQENEEEREEEPEPGVPGEQGPSEEHRTEALRALLSARKRKAGLGPTEEEATGEEEWNSAPKKRQLLDSDEEEDDEGRRQAVSGTPRVHRKKRFQIEDEDD
# notes: the construct was made from the coding region of AF071506; Printed once as 'mTIM-VS', read as V5; also called mTIM-VS
# Experiments:
# [1] = target: CYC (Drosophila) (UniProt O61734); assay: cell-based or functional assay
# CYC (Drosophila), sequence (O61734 whole entry): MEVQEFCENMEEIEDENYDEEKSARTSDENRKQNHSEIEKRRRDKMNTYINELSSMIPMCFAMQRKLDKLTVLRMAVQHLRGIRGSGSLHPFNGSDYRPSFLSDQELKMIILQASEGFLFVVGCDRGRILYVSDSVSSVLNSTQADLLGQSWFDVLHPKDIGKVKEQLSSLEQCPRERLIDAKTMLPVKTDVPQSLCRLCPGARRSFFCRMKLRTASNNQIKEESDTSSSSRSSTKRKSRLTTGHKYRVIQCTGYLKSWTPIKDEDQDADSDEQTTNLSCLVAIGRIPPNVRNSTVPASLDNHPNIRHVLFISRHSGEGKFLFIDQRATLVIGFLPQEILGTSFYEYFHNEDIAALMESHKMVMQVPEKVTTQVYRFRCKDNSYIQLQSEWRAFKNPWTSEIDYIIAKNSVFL
# [2] = target: B1; assay: co-immunoprecipitation from co-transfected COS7 cells, anti-HA IP, anti-V5 blot
# Method: (§1) Subsequently, the beads were washed four times (400 μl binding buffer for 10 min. per wash), mixed with 5 μl of 4×sodium dodecyl sulfate (SDS) gel loading buffer, boiled, and centrifuged. The supernatant was analyzed by SDS-polyacrylamide gel electrophoresis (PAGE) and western blotted as follows. Total protein (5 μg) from COS7 cells was extracted as described above, separated by SDS-PAGE, and transferred to a nitrocellulose membrane using a semi-dry blotting apparatus. Membranes were blocked with 5% non-fat milk. Blots were incubated with either the mouse anti-HA antibody (1:10,000) or the mouse anti-V5 antibody (1:5,000) overnight at 4EC. A goat anti-mouse horseradish peroxidase secondary antibody (1:10,000) was used in combination with enhanced chemiluminescence (NEN) to detect proteins.
# (§2) Following detection of epitope-tagged proteins with one antibody, the blots were stripped in stripping buffer (62.5 mM Tris-HCl (pH 6.7), 100 mM 2-mercaptoethanol, 2% SDS) at 50EC for 30 minutes. The membrane was washed extensively (20 mM Tris, pH 7.6, 137 mM NaCl, 0.05% Tween-20) then blocked again and processed for detection of the second epitope-tagged protein.
# [3] = target: T1, mPER1-HA (mouse, UniProt O35973 1-1291); assay: as above
# T1 construct: Expressed in COS7 cells; used in place of mPER3-HA in co-immunoprecipitation
# T1 sequence (O35973 whole entry): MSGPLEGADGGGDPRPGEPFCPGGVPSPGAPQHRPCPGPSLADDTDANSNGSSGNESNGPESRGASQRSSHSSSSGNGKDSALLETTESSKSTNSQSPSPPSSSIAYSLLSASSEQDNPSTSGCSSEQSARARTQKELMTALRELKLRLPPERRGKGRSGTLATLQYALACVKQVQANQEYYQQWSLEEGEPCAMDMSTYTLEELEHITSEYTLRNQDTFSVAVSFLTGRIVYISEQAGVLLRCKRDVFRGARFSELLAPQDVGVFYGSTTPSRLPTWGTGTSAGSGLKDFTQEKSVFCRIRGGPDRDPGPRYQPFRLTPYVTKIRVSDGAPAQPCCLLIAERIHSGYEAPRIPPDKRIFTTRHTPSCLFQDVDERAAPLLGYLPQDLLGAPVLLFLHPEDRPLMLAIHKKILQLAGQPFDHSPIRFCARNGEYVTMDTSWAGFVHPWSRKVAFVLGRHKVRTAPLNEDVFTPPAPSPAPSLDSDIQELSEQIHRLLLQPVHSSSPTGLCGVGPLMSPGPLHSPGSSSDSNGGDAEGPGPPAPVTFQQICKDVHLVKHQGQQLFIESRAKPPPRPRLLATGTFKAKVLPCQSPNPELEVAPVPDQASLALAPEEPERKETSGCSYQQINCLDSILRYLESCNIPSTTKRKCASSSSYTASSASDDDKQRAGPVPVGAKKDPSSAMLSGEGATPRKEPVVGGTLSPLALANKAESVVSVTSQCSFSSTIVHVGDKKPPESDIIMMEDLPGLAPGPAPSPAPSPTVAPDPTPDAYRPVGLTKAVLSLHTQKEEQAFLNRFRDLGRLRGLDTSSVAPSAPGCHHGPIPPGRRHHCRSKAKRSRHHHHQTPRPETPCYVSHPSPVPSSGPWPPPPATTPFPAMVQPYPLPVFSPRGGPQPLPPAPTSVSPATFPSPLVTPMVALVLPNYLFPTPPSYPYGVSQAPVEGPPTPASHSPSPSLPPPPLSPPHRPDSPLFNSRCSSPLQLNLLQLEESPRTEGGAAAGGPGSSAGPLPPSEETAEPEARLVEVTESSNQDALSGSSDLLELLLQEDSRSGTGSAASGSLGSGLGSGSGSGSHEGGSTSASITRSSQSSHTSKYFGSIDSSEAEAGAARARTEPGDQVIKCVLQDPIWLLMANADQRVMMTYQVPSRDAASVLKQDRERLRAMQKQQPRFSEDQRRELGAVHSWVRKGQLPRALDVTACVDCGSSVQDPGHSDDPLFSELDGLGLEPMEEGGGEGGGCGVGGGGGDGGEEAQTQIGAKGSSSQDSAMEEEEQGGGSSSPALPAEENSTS
# Method: as §1, §2
# [4] = target: syrian hamster (sh)BMAL1 (syrian hamster, UniProt O88529 1-626); assay: cell-based or functional assay
# syrian hamster (sh)BMAL1, sequence (O88529 whole entry): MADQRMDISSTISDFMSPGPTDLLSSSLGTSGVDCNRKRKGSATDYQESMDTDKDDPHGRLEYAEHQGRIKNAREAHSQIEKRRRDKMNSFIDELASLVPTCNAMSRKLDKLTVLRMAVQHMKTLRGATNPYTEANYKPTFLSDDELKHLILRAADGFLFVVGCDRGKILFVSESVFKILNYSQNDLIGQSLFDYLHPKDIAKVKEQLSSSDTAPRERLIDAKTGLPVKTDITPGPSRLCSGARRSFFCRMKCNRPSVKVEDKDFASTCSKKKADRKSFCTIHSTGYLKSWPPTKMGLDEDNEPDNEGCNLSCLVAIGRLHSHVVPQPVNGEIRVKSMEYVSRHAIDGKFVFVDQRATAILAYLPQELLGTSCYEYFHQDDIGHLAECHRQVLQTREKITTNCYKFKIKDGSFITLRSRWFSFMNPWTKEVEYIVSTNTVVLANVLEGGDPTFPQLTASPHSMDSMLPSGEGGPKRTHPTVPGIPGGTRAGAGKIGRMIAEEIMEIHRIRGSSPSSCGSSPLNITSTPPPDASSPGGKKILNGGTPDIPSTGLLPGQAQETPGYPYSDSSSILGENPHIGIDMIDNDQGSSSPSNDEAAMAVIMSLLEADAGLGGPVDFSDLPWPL
Molecule,"transcriptional activation (vasopressin promoter luciferase reporter, NIH3T3 cells) [4] [fold increase]","transcriptional activity (per E box luciferase reporter, S2 cells) [4] [fold]",other results
dCLOCK (from UniProt O61735 1-1027),–,–,"transcriptional activity (per E box luciferase reporter, S2 cells) [1]: 265 fold"
"mPER3-HA (other, mouse, UniProt O70361 1-1113, looked up, not shown: small tags and cut ends, Expressed in COS7 cells from pcDNA 3.1; immunoprecipitated with anti-HA antibody) MDPCGDPAVPGGDCPQTRGPGLQGASGQEGPLQGTCVDSSHSEHEDRNRMSEELIMVVQEMKKYFPAERHTKPSTLDALNYALRCVHSVQANSDFFQSLGPRGAHQADVTVYSLEDLTALASEHTSKNTDTFAAVFSFLSGRLVHISEQAALILNSKRGFLKSVHFVDLLAPQDVRAFYAHTAPTQLPFWNNWTQRASQYECAPAKPFFCRICGGGDREKRHYSPFRILPYLVHVHSSAQPEPEPCCLTLVEKIHSGYEAPRIPVDKRIFTTTHTPGCVFLEVDERAVPLLGYLPQDLIGTSILTYLHPEDRPLMVAIHQKVLKYAGHPPFEHSPVRFCTQNGEYVILDSSWSSFVNPWSRKVSFIIGRHKVRTSPLNEDVFATRIKKAASNDKDIAELQEQIHKLLLQPVHASASSGYGSLGSSGSQEQHVSITSSSESSGHCPEEGQHEQMTLQQVYASVNKIKNVGQQLYIESMARSSVKPVAETCVEPQGGDEQKDFSSSQTLKNKSTTDTGSGGNLQQEQPSSSYQQMNCIDSVIRYLTSYSLPALKRKCISCTNTSSSSEEAKPIPEVDSSQRDTEQLLDIRKQETTGPSTDIEGGAARTLSTAALSVASGISQCSCSSTSGHAPPLQSESVAVACKPWALRTKASHLAAGGFKHVGLTAAVLSAHTQKEEQNYVDRFREKILTSPYGCYLQQESRNRAQYSCVQAGSTAKHSRCAGSERQKHKRKKLPAPVDTSSPGAHLCPHVTGLLPDEQHWGPSASPSPLGAGLAFPSALVVPSQTPYLLPSFPLQDMASQGVGVSAAWGAAAGCPPLSAGPQAVAAFPSAYVDTLMTIFLHNAPLFPLWPPSFSPYPSLGAAGSSELAPLVPAMAPNPEPTTSGHSQRRVEENWEAHSEELPFISSRSSSPLQLNLLQEEMPAPSESADAVRRGAGPDAKHHCVTGPSGSRSRHCTSGELATATAQQESAAASGSSASSIYFSSTDYASEVSENRQRPQDRQRDEALPGAAEESIWRMIERTPECVLMTYQVPERGREEVLKQDLEKLQSMEQQQPLFSPAQREELAKVRSWIHSHTAPQEGHLQSCVACEDRGSVGDTAEVLEQHPAEDTS",–,–,binding result [2]: no binding
B1,–,–,binding result [3]: no binding
"mCLOCK (other, mouse, UniProt O08785 1-855, looked up) MVFTVSCSKMSSIVDRDDSSIFDGLVEEDDKDKAKRVSRNKSEKKRRDQFNVLIKELGSMLPGNARKMDKSTVLQKSIDFLRKHKETTAQSDASEIRQDWKPTFLSNEEFTQLMLEALDGFFLAIMTDGSIIYVSESVTSLLEHLPSDLVDQSIFNFIPEGEHSEVYKILSTHLLESDSLTPEYLKSKNQLEFCCHMLRGTIDPKEPSTYEYVRFIGNFKSLTSVSTSTHNGFEGTIQRTHRPSYEDRVCFVATVRLATPQFIKEMCTVEEPNEEFTSRHSLEWKFLFLDHRAPPIIGYLPFEVLGTSGYDYYHVDDLENLAKCHEHLMQYGKGKSCYYRFLTKGQQWIWLQTHYYITYHQWNSRPEFIVCTHTVVSYAEVRAERRRELGIEESLPETAADKSQDSGSDNRINTVSLKEALERFDHSPTPSASSRSSRKSSHTAVSDPSSTPTKIPTDTSTPPRQHLPAHEKMTQRRSSFSSQSINSQSVGPSLTQPAMSQAANLPIPQGMSQFQFSAQLGAMQHLKDQLEQRTRMIEANIHRQQEELRKIQEQLQMVHGQGLQMFLQQSNPGLNFGSVQLSSGNSNIQQLTPVNMQGQVVPANQVQSGHISTGQHMIQQQTLQSTSTQQSQQSVMSGHSQQTSLPSQTPSTLTAPLYNTMVISQPAAGSMVQIPSSMPQNSTQSATVTTFTQDRQIRFSQGQQLVTKLVTAPVACGAVMVPSTMLMGQVVTAYPTFATQQQQAQTLSVTQQQQQQQQQPPQQQQQQQQSSQEQQLPSVQQPAQAQLGQPPQQFLQTSRLLHGNPSTQLILSAAFPLQQSTFPPSHHQQHQPQQQQQLPRHRTDSLTDPSKVQPQ",10,1740,–
"human (h)MOP4 (other, UniProt Q99743 1-824, looked up) MDEDEKDRAKRASRNKSEKKRRDQFNVLIKELSSMLPGNTRKMDKTTVLEKVIGFLQKHNEVSAQTEICDIQQDWKPSFLSNEEFTQLMLEALDGFIIAVTTDGSIIYVSDSITPLLGHLPSDVMDQNLLNFLPEQEHSEVYKILSSHMLVTDSPSPEYLKSDSDLEFYCHLLRGSLNPKEFPTYEYIKFVGNFRSYNNVPSPSCNGFDNTLSRPCRVPLGKEVCFIATVRLATPQFLKEMCIVDEPLEEFTSRHSLEWKFLFLDHRAPPIIGYLPFEVLGTSGYDYYHIDDLELLARCHQHLMQFGKGKSCCYRFLTKGQQWIWLQTHYYITYHQWNSKPEFIVCTHSVVSYADVRVERRQELALEDPPSEALHSSALKDKGSSLEPRQHFNTLDVGASGLNTSHSPSASSRSSHKSSHTAMSEPTSTPTKLMAEASTPALPRSATLPQELPVPGLSQAATMPAPLPSPSSCDLTQQLLPQTVLQSTPAPMAQFSAQFSMFQTIKDQLEQRTRILQANIRWQQEELHKIQEQLCLVQDSNVQMFLQQPAVSLSFSSTQRPEAQQQLQQRSAAVTQPQLGAGPQLPGQISSAQVTSQHLLRESSVISTQGPKPMRSSQLMQSSGRSGSSLVSPFSSATAALPPSLNLTTPASTSQDASQCQPSPDFSHDRQLRLLLSQPIQPMMPGSCDARQPSEVSRTGRQVKYAQSQTVFQNPDAHPANSSSAPMPVLLMGQAVLHPSFPASQPSPLQPAQARQQPPQHYLQVQAPTSLHSEQQDSLLLSTYSQQPGTLGYPQPPPAQPQPLRPPRRVSSLSESSGLQQPPR",37,539,–
